From article PMC5449618 (Nucleic Acids Research, 2017)

Assays:
[1] = molecular target: GST-fused HBO1 MYST domain (residues 336–611) (human, UniProt O95251 336-611); test: pull-down
[2] = molecular target: HBO1 MYST domain (residues 336–611), without tag, co-expressed with BRPF2 (human, UniProt O95251 336-611); test: crystal structure
Sequence of HBO1 MYST domain (residues 336–611), without tag, co-expressed with BRPF2 (O95251 336-611): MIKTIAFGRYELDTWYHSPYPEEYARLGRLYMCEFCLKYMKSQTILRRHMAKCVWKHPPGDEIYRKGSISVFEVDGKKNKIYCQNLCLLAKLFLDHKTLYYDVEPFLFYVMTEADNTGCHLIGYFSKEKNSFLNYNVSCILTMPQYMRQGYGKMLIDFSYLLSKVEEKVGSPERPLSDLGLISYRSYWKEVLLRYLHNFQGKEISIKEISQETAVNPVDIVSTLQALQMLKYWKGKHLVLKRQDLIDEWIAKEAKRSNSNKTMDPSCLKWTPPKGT

Sequence of GST-fused HBO1 MYST domain (residues 336–611) (O95251 336-611): as above

Binder | binding result [1] | stoichiometry N [2]
MVEIEIEGRLHRISIFDPLEIILE (domain or fragment, human, UniProt O95696 39-62, looked up) [Sumo–BRPF2 (39–62)] | binds | –
MVEIEIEGRLHRISIFDPLEIILEDDLT (domain or fragment, human, UniProt O95696 39-66, looked up) [Sumo–BRPF2 (39–66)] | binds | –
Sumo–BRPF2 (1–80) (domain or fragment, human, UniProt O95696 1-80, looked up) MRRKGRCHRGSAARHPSSPCSVKHSPTRETLTYAQAQRMVEIEIEGRLHRISIFDPLEIILEDDLTAQEMSECNSNKENS | binds | –
LTYAQAQRMVAIAIAGRLHRISIFDPLEIILEDDLTAQEMSECNSNKENS (domain or fragment, human, UniProt O95696 31-80, looked up) [Sumo–BRPF2 (31–80) E41A/E43A/E45A] | binds | –
LTYAQAQRMVEIEIEGRLHRISIFDPLEIILEDDLTAQEMSECNSNKENS (domain or fragment, human, UniProt O95696 31-80, looked up) [BRPF2 (31–80), His6 tag removed, co-expressed with the HBO1 MYST domain] | – | 1
LTYAQAQRMVEIEIEGRLHRISIFDPLEIILAAALTAQEMSECNSNKENS (domain or fragment, human, UniProt O95696 31-80, looked up) [Sumo–BRPF2 (31–80) E62A/D63A/D64A] | binds | –

Continued, values first:

binding result [1] | stoichiometry N [2] | Binder
binds | – | Sumo–BRPF2 (1–205) (domain or fragment, human, UniProt O95696 1-205, looked up) MRRKGRCHRGSAARHPSSPCSVKHSPTRETLTYAQAQRMVEIEIEGRLHRISIFDPLEIILEDDLTAQEMSECNSNKENSERPPVCLRTKRHKNNRVKKKNEALPSAHGTPASASALPEPKVRIVEYSPPSAPRRPPVYYKFIEKSAEELDNEVEYDMDEEDYAWLEIVNEKRKGDCVPAVSQSMFEFLMDRFEKESHCENQKQG
binds | – | LTYAQAQRMVEIEIEGRLHRISIFDPLEIILE (domain or fragment, human, UniProt O95696 31-62, looked up) [Sumo–BRPF2 (31–62)]
binds | – | LTYAQAQRMVKIKIKGRLHRISIFDPLEIILEDDLTAQEMSECNSNKENS (domain or fragment, human, UniProt O95696 31-80, looked up) [Sumo–BRPF2 (31–80) E41K/E43K/E45K]
binds | – | LTYAQAQRMVEIEIEGRLHRISIFDPLEIILKKKLTAQEMSECNSNKENS (domain or fragment, human, UniProt O95696 31-80, looked up) [Sumo–BRPF2 (31–80) E62K/D63K/D64K]
